B1: 2C5: PDGFRβ-specific human antibody binding both human and murine PDGFRβ; SEQ ID NOS in Table 1 (antibody, listed as Homo sapiens, V domains shown)
VH: QVQLVQSGAEVKKPGSSVKVSCKASGGTFSSYAISWVRQAPGQGLEWMGRIIPILGIANYAQKFQGRVTITADKSTSTAYMELSSLRSEDTAVYYCARDMGSRNYYYFYWGQGTLVTVSS
VL: EIVLTQSPATLSLSPGERATLSCRASQSVGRYLAWYQQKPGQAPRLLIYGASNRATGIPARFSGSGSGTDFTLTISSLEPEDFAVYYCQQRSNWPLTFGGGTKVEIK
B2: 1B3: human anti-mouse PDGFRβ antibody from Fab phage display library, human κ/γ1 constant regions; SEQ ID NOS in Table 1 (antibody, listed as Homo sapiens, V domains shown)
VH: QVQLQESGGGLVKPGGSLRLSCAASGFTFSSYSMNWVRQAPGKGLEWVSSISSSSSYIYYADSVKGRFTISRDNSKNTLYLQMNSLRAEDTAVYYCAKGGRPLLVFDFWGQGTLVTVS
VL: EIVMTQSPGTLSLSPGERATLSCRASQSVSSSYLAWYQQKPGQAPRLLIYDASKRATGIPARFSGSGSGTDFTLTISTLESEDSAVYYCQQRGYWPPITFGQGTRLEIKR
modifications: human kappa/gamma1 constant regions

Key:
[1] = molecular target: h5β (Homo sapiens, UniProt P09619); assay: Epitope mapping; format: binding; settings: ✓ / X, key not given
h5β, sequence (P09619 33-532 limits assumed): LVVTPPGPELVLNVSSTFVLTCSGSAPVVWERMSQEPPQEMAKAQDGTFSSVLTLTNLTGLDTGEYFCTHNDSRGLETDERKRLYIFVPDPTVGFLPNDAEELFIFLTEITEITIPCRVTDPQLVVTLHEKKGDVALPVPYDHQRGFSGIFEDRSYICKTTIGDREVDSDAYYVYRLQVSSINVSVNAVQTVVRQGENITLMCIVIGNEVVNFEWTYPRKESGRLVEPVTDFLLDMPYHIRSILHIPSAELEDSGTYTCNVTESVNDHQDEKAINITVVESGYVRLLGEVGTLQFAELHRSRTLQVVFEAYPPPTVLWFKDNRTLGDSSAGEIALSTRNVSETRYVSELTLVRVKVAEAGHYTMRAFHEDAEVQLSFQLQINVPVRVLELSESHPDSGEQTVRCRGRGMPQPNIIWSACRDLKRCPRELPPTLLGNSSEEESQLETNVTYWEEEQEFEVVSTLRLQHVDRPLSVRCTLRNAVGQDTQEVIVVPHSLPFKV
Description: Various chimeric constructs of PDGFRβ and PDGFRα were first made by domain swapping, starting from N-terminus to C-terminus with PDGFRβ domain(s) replacing PDGFRα domain(s). The PDGFRβ/α chimera were tested for the ability of 2C5 binding. Shorter versions of PDGFRβ, including D1D2, D2D3 and D1D2D3, were then made to confirm the 2C5 binding domains on PDGFRβ.

[2] = system: Akt and p44/42 MAP kinase in Caki-1 cells; assay: PDGF-BB-stimulated downstream signaling (Western blot); format: cell-based, human
Description: To study the downstream signaling, the cell lysate from the above treatment were resolved by a 4-12% NuPAGE Bis-Tris gel. Phosphorylated Akt and p44/42 mitogen-activated protein kinase (MAPK) were detected using an anti-phospho-Akt and an anti-phospho-p44/p42 MAPK and p44/p42 MAPK, respectively (eBioscience, San Diego, Calif.).
2C5 inhibits PDGF-BB-stimulated receptor phosphorylation and downstream signaling in a cell-based assay. The ability of 2C5 to block PDGFRβ phosphorylation was determined for human Caki-1 tumor cells (FIG. 7) and mouse NIH/3T3 and D122 cells lines (FIG. 8).

[3] = molecular target: mouse PDGFRα (Mus musculus, UniProt P26618); assay: Binding to PDGFRα; settings: data not shown
mouse PDGFRα, sequence (P26618 25-1089): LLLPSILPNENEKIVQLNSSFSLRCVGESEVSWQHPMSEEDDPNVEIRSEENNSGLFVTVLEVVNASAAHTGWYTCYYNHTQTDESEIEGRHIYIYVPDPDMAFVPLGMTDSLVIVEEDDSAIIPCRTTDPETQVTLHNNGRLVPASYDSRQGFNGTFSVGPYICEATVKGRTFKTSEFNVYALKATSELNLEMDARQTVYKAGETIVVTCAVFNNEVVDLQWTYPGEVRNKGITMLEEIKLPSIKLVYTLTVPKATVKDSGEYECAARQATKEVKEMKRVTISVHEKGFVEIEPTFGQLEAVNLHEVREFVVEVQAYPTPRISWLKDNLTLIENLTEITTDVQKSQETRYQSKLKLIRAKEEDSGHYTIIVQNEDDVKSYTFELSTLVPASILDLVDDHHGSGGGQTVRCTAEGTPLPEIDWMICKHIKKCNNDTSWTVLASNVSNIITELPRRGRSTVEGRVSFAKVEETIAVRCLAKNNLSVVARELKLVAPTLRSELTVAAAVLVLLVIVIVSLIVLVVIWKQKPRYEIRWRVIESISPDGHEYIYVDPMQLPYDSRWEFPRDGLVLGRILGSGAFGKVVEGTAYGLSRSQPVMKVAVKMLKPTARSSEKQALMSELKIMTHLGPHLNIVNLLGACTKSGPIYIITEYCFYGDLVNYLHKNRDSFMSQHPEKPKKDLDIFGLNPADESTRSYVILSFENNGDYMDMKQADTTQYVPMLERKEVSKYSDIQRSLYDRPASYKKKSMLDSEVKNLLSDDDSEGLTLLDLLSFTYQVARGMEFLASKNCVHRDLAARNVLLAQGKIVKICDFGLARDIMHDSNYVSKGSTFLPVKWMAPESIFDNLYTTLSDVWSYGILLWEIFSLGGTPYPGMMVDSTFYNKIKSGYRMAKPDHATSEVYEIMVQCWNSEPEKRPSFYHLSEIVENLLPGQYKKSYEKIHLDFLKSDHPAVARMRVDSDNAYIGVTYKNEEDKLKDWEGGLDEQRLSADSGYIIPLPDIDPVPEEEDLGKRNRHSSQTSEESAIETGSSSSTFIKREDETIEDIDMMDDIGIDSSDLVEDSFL

[4] = system: blood vessels and pericytes in BxPC3 tumor xenografts; assay: Immunohistochemistry of tumor sections (CD31 / α-SMA double staining); format: in vivo, mouse; settings: BxPC3 tumors, Day 34 post treatment
From the text: FIG. 5 represents results of immunohistochemical analysis of human xenografts after treatment with 1B3, DC101, or DC101 plus 1B3. On Day 34 (BxPC3 model, panel A to C) or 50 (NCI-H460 model, panel D to F) post treatment, six mice from each group were sacrificed and tumors were processed for IHC analysis. Tumors were sectioned and double staining for both blood vessels (anti-CD31) and pericyte/SMC coverage (α-SMA, panel B and E). Five digital immunofluorescence images of tumor periphery and tumor core from each section were acquired and quantified for total CD31^+ vessels (panel A and D), α-SMA^+ vessels (panel B and E), and the percentage of dual CD31^+/α-SMA^+ over total CD31^+ vessels (panel C and F). Two different quantitation methods were used to measure the degree of vascularity of individual tumor sections: vessel density (numbers of vessels/[…]) and percentage of vessel area (% vessel area over total tumor area). For statistic analysis, two-way ANOVA followed by Fisher's LSD method was used for multiple comparisons (Sigma Stat 3.1 Systat Software, Inc., Point Richmond, Calif.). *P<0.05 compared to the saline group. Open bars, tumor periphery; solid bars, tumor core. […]
Immunofluorescence images (at 200× magnification) were acquired using EZ-C1 2.20 software through a digital camera connected to a confocal microscope (Nikon Eclipse TE2000U). Computer assisted morphologic quantification was performed using Image Pro Plus software (MediaCybernatics, Silver Spring, Md.) and analyzed from each section.
Five digital images of tumor periphery and tumor core from each section were counted for total CD31^+ vessels, α-SMA^+ vessels, mature vessels (dual CD31^+ and α-SMA^+), and the percentage of dual CD31^+/α-SMA^+ vessels over total CD31^+ vessels. Two different quantitation methods were used to measure the degree of vascularity of individual tumor sections: vessel density (numbers of vessels/[…]) and percentage of vessel area (% vessel area over total tumor area). Computer assisted morphologic quantification was performed using Image Pro Plus software. […]

[5] = molecular target: T1, PDGFRβ in NIH/3T3 cells (Mus musculus, UniProt P05622); assay: PDGF-BB-stimulated receptor phosphorylation (Western blot); format: cell-based
T1 construct: Receptor phosphorylation was determined for NIH/3T3 and D122 cells; endogenous in cells; host or cells: NIH/3T3
T1 sequence (P05622 32-1098): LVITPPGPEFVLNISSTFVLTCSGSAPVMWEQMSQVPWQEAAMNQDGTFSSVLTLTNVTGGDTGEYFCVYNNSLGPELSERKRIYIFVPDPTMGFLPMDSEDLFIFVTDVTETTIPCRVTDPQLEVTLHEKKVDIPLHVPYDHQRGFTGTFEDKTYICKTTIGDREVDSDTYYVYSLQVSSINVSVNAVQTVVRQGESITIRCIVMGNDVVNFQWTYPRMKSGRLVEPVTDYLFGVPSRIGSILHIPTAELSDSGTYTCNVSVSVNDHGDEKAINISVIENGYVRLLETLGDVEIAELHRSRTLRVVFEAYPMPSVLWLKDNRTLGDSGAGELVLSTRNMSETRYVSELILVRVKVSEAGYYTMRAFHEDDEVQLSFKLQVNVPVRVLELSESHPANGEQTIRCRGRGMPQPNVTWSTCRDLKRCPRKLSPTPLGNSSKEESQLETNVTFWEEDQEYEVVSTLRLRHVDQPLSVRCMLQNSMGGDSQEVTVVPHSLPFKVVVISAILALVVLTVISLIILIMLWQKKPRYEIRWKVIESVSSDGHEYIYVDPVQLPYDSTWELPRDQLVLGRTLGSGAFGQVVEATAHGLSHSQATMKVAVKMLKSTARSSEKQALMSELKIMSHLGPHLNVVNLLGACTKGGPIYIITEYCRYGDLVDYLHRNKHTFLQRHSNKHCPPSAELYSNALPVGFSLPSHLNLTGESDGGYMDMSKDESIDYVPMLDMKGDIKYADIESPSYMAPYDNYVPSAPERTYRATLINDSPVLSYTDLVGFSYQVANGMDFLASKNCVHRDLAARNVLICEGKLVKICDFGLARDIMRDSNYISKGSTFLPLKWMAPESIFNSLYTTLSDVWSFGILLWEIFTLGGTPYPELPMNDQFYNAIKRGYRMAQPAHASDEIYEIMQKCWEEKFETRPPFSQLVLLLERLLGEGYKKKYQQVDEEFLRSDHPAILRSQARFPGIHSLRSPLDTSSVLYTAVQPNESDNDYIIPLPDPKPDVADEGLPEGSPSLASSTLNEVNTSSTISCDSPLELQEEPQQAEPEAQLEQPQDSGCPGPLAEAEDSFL
Description: (§1) Receptor phosphorylation was determined for NIH/3T3 and D122 cells. The cells were plated onto 6 cm dishes and grown to 70-80% confluence, after which the cells were washed twice in PBS and cultured overnight in serum free medium. […] The cells were lysed in lysis buffer (50 mM Tris-HCl, pH 7.4, 150 mM NaCl, 1% TritonX-100, 1 mM EDTA, 1 mM phenylmethylsulfonyl fluoride, 0.5 mM Na3VO4 1 μg/ml leupeptin, 1 μg/ml pepstatin, and 1 μg/ml aprotinin) for 1 h, followed by centrifugation of the lysate at 12,000 rpm for 10 min at 4° C. The receptors were immunoprecipitated from the cell lysate supernatant by an anti-mPDGFRβ antibody (R&D Systems Inc), followed by the addition of 20 μl of ProA/G-sepharose beads. The precipitated receptor proteins were resolved on a 4-12% NuPAGE Bis-Tris gel and transferred to a polyvinylidene difluoride membrane. Phospho-mPDGFRβ protein was detected on the blot using an anti-phospho-tyrosine antibody-HRP conjugate (Santa Cruz Biotech, Santa Cruz, Calif.). Total receptor proteins loaded on the gel were assayed with an antibody to mPDGFRβ.

[6] = molecular target: T2, PDGFRβ in D122 cells (Mus musculus, UniProt P05622); assay: as above; format: cell-based
T2 construct: endogenous in cells; host or cells: D122
T2 sequence (P05622 32-1098): as above
Description: as §1

[7] = system: human PDGFRβ; assay: Cross-reactivity binding test (soluble recombinant protein or cell-surface receptor on human tumor cell lines); settings: soluble recombinant protein or cell-surface-expressed receptor on human tumor cell lines
human PDGFRβ, sequence (P09619 33-532 limits assumed): as the sequence (P09619 33-532 limits assumed) above

Molecule	binding to h5β [1]	inhibition of PDGF-BB-stimulated phosphorylation of Akt and p44/42 MAP kinase [2]	binding to mouse PDGFRα [3]	CD31^+ vessel density ([4]; 40 mg/kg three times a week)	α-SMA^+ vessel density / α-SMA staining ([4]; 40 mg/kg three times a week)	percentage of CD31/α-SMA double positive (mature) vessels over total CD31^+ vessels ([4]; versus saline)	inhibition of PDGF-BB-stimulated receptor phosphorylation [5]	inhibition of PDGF-BB-stimulated receptor phosphorylation [6]	cross-reactivity, binding to human PDGFRβ [7]
B1	✓	potently inhibited							
B2			did not bind	no significant effect on overall tumor vessel density	reduced the α-SMA staining in tumor periphery	reduced percentage	inhibited PDGF-BB-stimulated receptor phosphorylation in both NIH/3T3 and D122 cells in a dose dependent manner	inhibited PDGF-BB-stimulated receptor phosphorylation in both NIH/3T3 and D122 cells in a dose dependent manner	No cross-reactivity was observed
